# Data published in IntAct's records for PubMed 31515488.
# B1: Tuftelin-interacting protein 11 (Homo sapiens), Q9UBB9 (parent)
# chain: MSLSHLYRDGEGRIDDDDDERENFEITDWDLQNEFNPNRQRHWQTKEEATYGVWAERDSDDERPSFGGKRARDYSAPVNFISAGLKKGAAEEAELEDSDDEEKPVKQDDFPKDFGPRKLKTGGNFKPSQKGFAGGTKSFMDFGSWERHTKGIGQKLLQKMGYVPGRGLGKNAQGIINPIEAKQRKGKGAVGAYGSERTTQSMQDFPVVDSEEEAEEEFQKELSQWRKDPSGSKKKPKYSYKTVEELKAKGRISKKLTAPQKELSQVKVIDMTGREQKVYYSYSQISHKHNVPDDGLPLQSQQLPQSGKEAKAPGFALPELEHNLQLLIDLTEQEIIQNDRQLQYERDMVVNLFHELEKMTEVLDHEERVISNLSKVLEMVEECERRMQPDCSNPLTLDECARIFETLQDKYYEEYRMSDRVDLAVAIVYPLMKEYFKEWDPLKDCTYGTEIISKWKSLLENDQLLSHGGQDLSADAFHRLIWEVWMPFVRNIVTQWQPRNCDPMVDFLDSWVHIIPVWILDNILDQLIFPKLQKEVENWNPLTDTVPIHSWIHPWLPLMQARLEPLYSPIRSKLSSALQKWHPSDSSAKLILQPWKDVFTPGSWEAFMVKNIVPKLGMCLGELVINPHQQHMDAFYWVIDWEGMISVSSLVGLLEKHFFPKWLQVLCSWLSNSPNYEEITKWYLGWKSMFSDQVLAHPSVKDKFNEALDIMNRAVSSNVGAYMQPGARENIAYLTHTERRKDFQYEAMQERREAENMAQRGIGVAASSVPMNFKDLIETKAEEHNIVFMPVIGKRHEGKQLYTFGRIVIYIDRGVVFVQGEKTWVPTSLQSLIDMAK
# partner: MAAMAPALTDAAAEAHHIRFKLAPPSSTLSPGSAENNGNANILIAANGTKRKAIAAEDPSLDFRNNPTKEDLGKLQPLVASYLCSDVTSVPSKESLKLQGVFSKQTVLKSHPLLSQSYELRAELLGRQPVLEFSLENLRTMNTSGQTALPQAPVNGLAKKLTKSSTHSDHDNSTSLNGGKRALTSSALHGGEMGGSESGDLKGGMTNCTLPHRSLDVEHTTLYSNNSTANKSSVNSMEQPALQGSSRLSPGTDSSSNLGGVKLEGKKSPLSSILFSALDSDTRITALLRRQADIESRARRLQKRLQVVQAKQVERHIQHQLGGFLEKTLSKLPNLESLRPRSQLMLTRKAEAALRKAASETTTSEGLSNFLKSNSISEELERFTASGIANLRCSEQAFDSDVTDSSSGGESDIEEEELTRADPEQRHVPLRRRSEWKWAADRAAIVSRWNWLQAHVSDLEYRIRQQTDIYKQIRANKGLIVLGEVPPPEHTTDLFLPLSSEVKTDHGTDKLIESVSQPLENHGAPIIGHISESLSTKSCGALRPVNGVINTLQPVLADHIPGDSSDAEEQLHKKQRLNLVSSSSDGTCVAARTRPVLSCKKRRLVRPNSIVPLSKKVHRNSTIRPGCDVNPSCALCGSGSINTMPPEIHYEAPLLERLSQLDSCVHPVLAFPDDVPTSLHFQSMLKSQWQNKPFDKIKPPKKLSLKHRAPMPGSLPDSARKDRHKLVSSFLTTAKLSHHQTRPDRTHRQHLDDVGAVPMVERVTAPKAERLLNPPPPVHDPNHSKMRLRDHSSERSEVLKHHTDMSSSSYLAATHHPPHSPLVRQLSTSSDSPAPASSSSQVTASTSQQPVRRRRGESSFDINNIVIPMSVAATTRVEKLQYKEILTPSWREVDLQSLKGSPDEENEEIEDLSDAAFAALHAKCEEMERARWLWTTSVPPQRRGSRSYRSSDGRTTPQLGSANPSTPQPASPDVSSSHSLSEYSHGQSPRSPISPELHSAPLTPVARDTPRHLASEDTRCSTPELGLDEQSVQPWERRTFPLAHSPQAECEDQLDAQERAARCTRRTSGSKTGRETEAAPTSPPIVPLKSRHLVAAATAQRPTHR
# B2: NUT family member 2F (Homo sapiens), A1L443 (parent)
# chain: MASNGAYPVLGPGVTVNPGTSLSVFTALPFATPAPGPAHRPPLVTAVVPPAGPLVLSAFPSTPLVAGQDGRGPSGAGASNVFVQMRTEVGPVKPPQAQTLILTQAPLVWQAPGTLCGGVMCPPPLLLAAAPGVPVTSAQVVGGTQACEGGWSHGLPLPPPPPAAQVAPIVSPGNARPWPQGAHGEGSLAPSQAKARPDDSCKPKSVYENFRLWQHYKPLARRHLPQSPDTEALSCFLIPVLRSLARRKPTMTLEEGLWQAMREWQHTSNFDRMIFYEMAEKFLEFEAEEEMQIQKSQWMKGPQSLPPPAPPRLEPRGPPAPEVVKQPVYLPSKDGPKAPTACLPPPRPQRPAETKAHLPPPRPQRPAETNAHLPPPRPQRPAETKVPEEIPPEVVQEYVDIMEELLGSHPGDTGEPEGQREKGKVEQPQEEDGITSDPGLLSYIDKLCSQEDFVTKVEAVIHPRFLEELLSPDPQMDFLALSQELEQEEGLTLAQLVEKRLLSLKEKGCGRAAPRHGTARLDSSPSEFAAGQEAAREVPDPQQRVSVETSPPQTAAQDPQGQGRVRTGMARSEDPAVLLGCQDSPRLKAVRPTSPPQDHRPTCPGLGTKDALGLPGESPVKESHGLAKGSSEETELPGMVYVVGSHHRLRPWRLSQSPVPSSGLLSPGGRGPQGALQSPSAQKRGLSPSPSPASKSKKRPLFGSPSPAEKTPHPGPGLRVSGEQSLAWGLGGPSQSQKRKGDPLASRRKKKRHCSQ
# partner: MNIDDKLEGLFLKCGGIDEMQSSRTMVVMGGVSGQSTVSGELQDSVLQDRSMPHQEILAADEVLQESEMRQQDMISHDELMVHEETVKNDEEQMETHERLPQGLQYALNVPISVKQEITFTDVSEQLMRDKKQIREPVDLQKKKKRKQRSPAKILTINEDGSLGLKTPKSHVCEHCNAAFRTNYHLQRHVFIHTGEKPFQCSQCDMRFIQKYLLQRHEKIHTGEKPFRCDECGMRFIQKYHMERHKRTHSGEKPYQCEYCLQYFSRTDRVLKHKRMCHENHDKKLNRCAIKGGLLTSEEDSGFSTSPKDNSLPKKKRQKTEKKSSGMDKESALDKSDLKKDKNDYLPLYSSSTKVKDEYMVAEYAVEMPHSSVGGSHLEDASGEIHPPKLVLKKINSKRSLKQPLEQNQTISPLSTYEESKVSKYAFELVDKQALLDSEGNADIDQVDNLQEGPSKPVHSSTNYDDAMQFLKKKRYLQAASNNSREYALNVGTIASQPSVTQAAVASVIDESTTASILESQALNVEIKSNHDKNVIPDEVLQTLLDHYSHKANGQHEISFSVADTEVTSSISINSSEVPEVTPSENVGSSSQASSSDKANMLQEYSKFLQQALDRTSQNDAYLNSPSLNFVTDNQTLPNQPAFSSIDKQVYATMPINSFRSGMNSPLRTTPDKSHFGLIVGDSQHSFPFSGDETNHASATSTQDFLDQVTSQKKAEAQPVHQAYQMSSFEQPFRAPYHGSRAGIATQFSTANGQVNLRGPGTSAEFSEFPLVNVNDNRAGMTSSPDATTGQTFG
# B3: Myomegalin (Homo sapiens), Q5VU43-2 (parent)
# chain: MKEICRICARELCGNQRRWIFHTASKLNLQVLLSHVLGKDVPRDGKAEFACSKCAFMLDRIYRFDTVIARIEALSIERLQKLLLEKDRLKFCIASMYRKNNDDSGAEIKAGNGTVDMSVLPDARYSALLQEDFAYSGFECWVENEDQIQEPHSCHGSEGPGNRPRRCRGCAALRVADSDYEAICKVPRKVARSISCGPSSRWSTSICTEEPALSEVGPPDLASTKVPPDGESMEEETPGSSVESLDASVQASPPQQKDEETERSAKELGKCDCCSDDQAPQHGCNHKLELALSMIKGLDYKPIQSPRGSRLPIPVKSSLPGAKPGPSMTDGVSSGFLNRSLKPLYKTPVSYPLELSDLQELWDDLCEDYLPLRVQPMTEELLKQQKLNSHETTITQQSVSDSHLAELQEKIQQTEATNKILQEKLNEMSYELKCAQESSQKQDGTIQNLKETLKSRERETEELYQVIEGQNDTMAKLREMLHQSQLGQLHSSEGTSPAQQQVALLDLQSALFCSQLEIQKLQRVVRQKERQLADAKQCVQFVEAAAHESEQQKEASWKHNQELRKALQQLQEELQNKSQQLRAWEAEKYNEIRTQEQNIQHLNHSLSHKEQLLQEFRELLQYRDNSDKTLEANEMLLEKLRQRIHDKAVALERAIDEKFSALEEKEKELRQLRLAVRERDHDLERLRDVLSSNEATMQSMESLLRAKGLEVEQLSTTCQNLQWLKEEMETKFSRWQKEQESIIQQLQTSLHDRNKEVEDLSATLLCKLGPGQSEIAEELCQRLQRKERMLQDLLSDRNKQVLEHEMEIQGLLQSVSTREQESQAAAEKLVQALMERNSELQALRQYLGGRDSLMSQAPISNQQAEVTPTGRLGKQTDQGSMQIPSRDDSTSLTAKEDVSIPRSTLGDLDTVAGLEKELSNAKEELELMAKKERESQMELSALQSMMAVQEEELQVQAADMESLTRNIQIKEDLIKDLQMQLVDPEDIPAMERLTQEVLLLREKVASVESQGQEISGNRRQQLLLMLEGLVDERSRLNEALQAERQLYSSLVKFHAHPESSERDRTLQVELEGAQVLRSRLEEVLGRSLERLNRLETLAAIGGAAAGDDTEDTSTEFTDSIEEEAAHHSHQQL
# partner: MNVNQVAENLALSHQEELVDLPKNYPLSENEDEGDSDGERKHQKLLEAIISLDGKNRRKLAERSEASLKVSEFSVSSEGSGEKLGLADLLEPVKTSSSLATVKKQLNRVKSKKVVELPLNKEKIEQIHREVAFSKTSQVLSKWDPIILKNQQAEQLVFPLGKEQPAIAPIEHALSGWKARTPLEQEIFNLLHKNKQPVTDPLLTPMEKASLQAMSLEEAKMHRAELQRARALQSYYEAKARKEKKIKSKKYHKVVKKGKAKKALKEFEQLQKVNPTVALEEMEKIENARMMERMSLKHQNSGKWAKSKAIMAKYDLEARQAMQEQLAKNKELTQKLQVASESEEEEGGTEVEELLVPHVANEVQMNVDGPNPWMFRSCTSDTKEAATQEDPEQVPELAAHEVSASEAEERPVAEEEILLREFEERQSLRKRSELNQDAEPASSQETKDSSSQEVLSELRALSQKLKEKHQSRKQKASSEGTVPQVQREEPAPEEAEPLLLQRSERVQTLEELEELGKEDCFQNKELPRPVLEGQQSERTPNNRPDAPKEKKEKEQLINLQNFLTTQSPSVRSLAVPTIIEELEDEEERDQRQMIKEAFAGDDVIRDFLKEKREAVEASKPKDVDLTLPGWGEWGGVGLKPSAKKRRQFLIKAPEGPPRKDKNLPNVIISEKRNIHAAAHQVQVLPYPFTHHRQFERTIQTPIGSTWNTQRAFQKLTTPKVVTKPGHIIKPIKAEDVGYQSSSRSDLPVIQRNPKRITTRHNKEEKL
# B4: Myomegalin (Homo sapiens), Q5VU43-2 (parent)
# chain: B3 chain
# B5: EF-hand domain-containing protein 1 (Homo sapiens), Q5JVL4 (parent)
# chain: MVSNPVHGLPFLPGTSFKDSTKTAFHRSQTLSYRNGYAIVRRPTVGIGGDRLQFNQLSQAELDELASKAPVLTYGQPKQAPPADFIPAHVAFDKKVLKFDAYFQEDVPMSTEEQYRIRQVNIYYYLEDDSMSVIEPVVENSGILQGKLIKRQRLAKNDRGDHYHWKDLNRGINITIYGKTFRVVDCDQFTQVFLESQGIELNPPEKMALDPYTELRKQPLRKYVTPSDFDQLKQFLTFDKQVLRFYAIWDDTDSMYGECRTYIIHYYLMDDTVEIREVHERNDGRDPFPLLMNRQRVPKVLVENAKNFPQCVLEISDQEVLEWYTAKDFIVGKSLTILGRTFFIYDCDPFTRRYYKEKFGITDLPRIDVSKREPPPVKQELPPYNGFGLVEDSAQNCFALIPKAPKKDVIKMLVNDNKVLRYLAVLESPIPEDKDRRFVFSYFLATDMISIFEPPVRNSGIIGGKYLGRTKVVKPYSTVDNPVYYGPSDFFIGAVIEVFGHRFIILDTDEYVLKYMESNAAQYSPEALASIQNHVRKREAPAPEAESKQTEKDPGVQELEALIDTIQKQLKDHSCKDNIREAFQIYDKEASGYVDRDMFFKICESLNVPVDDSLVKELIRMCSHGEGKINYYNFVRAFSN
# partner: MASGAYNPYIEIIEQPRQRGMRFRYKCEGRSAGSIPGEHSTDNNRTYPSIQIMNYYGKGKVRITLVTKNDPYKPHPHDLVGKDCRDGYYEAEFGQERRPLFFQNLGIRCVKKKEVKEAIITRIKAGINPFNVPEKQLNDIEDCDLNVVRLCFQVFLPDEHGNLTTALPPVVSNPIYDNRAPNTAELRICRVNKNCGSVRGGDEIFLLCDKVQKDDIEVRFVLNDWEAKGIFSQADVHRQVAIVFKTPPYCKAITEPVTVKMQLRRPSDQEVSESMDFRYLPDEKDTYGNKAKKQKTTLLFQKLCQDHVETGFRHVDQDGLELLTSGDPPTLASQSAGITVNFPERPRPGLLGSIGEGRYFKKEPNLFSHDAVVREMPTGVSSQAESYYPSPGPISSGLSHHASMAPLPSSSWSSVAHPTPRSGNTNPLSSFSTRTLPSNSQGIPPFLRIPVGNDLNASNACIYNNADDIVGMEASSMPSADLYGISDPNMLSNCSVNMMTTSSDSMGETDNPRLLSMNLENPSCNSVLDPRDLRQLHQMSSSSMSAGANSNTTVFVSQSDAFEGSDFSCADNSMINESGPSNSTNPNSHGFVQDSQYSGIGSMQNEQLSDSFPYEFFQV
# Variants of: B1
# Settings: with kanl1_human KANSL1, Q7Z3B3
row,Variant,effect of a mutation on the interaction
1,R8Q,with no effect

# Variants of: B2
# Settings: with zn148_human ZNF148, Q9UQR1
row,Variant,effect of a mutation on the interaction
1,N370K,with no effect

# Variants of: B3
# Settings: with ut14c_human UTP14C
row,Variant,effect of a mutation on the interaction
1,N28S,with no effect

# Variants of: B4
# Settings: with prp31_human PRPF31, Q8WWY3
# prp31_human PRPF31, Q8WWY3, sequence (Q8WWY3 whole entry): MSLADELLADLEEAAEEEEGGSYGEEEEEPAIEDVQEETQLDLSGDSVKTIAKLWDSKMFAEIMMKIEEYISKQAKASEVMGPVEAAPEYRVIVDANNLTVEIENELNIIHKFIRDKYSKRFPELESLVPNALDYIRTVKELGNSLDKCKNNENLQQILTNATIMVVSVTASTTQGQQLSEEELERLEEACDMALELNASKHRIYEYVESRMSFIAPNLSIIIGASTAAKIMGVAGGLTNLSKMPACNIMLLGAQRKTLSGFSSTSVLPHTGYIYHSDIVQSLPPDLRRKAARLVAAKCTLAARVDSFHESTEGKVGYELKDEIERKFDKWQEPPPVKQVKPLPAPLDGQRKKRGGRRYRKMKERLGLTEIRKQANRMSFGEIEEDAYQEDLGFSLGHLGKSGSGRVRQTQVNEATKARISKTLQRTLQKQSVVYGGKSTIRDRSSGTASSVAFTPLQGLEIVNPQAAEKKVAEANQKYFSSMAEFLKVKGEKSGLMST
row,Variant,effect of a mutation on the interaction
1,N28S,with no effect

# Variants of: B4
# Settings: with sdcb1_human SDCBP
row,Variant,effect of a mutation on the interaction
1,N28S,with no effect

# Variants of: B4
# Settings: with mare1_human MAPRE1, Q15691
# mare1_human MAPRE1, Q15691, sequence (Q15691 whole entry): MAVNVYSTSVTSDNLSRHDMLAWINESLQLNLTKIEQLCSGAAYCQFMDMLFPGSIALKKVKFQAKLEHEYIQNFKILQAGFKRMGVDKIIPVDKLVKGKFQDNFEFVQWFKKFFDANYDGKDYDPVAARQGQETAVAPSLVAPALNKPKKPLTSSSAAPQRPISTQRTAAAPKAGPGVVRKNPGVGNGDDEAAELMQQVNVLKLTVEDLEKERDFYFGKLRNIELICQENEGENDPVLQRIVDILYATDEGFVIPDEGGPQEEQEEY
row,Variant,effect of a mutation on the interaction
1,N28S,with no effect

# Variants of: B5
# Settings: with rel_human REL
row,Variant,effect of a mutation on the interaction
1,F229L,with no effect
